Columns and labels:
FZD1 CRD = molecular target: T1, FZD1 CRD (Homo sapiens, UniProt Q9UP38); experiment: Immunofluorescence of anti-FZD5 Fab binding to CHO cells overexpressing Frizzled CRD; design: key: −: no binding; +: very weak binder; ++: weak binder; +++: good binder; ++++: very good binder
T1 construct: D112-P238; GPI anchor signal (C); expressed in transfected cells; host or cells: CHO cells, lentiviral pLenti-puro
Protocol: (§1) Plasmids: pLCKO lentiviral vector used for knockout (TKO) library construction and expression of individual gRNAs was constructed as described previously (Hart et al., 2015). Briefly, single guide RNA (sgRNA) scaffold was amplified from px330 (Addgene 42230) and cloned into pLKO.TRC005 lentiviral vector (Broad Institute, Cambridge, Mass.) using AgeI/EcoRI restriction sites. BfuAI sites were added at the 5′ end of the sgRNA scaffold for cloning the TKO library or individual gRNA target sequences. Lenti Cas9-2A-BsdR vector used to generate Cas9 stable expression cell lines was constructed as described previously (Hart et al., 2015). Briefly, lentiCRISPR pXPR_001 (Addgene 49535) was modified through removal of the sgRNA scaffold region through NdeI/EcoRI digest and blunt ends generation using Large Klenow Fragment (NEB). 2A-puro was replaced with 2A-BsdR by PCR using the NheI/MluI sites. Each of the 10 human Frizzled cysteine rich domains (CRDs) were cloned into the lentiviral expression plasmid pLenti-puro in the following cassette: FZD_CRD-MYC-GPI.
(§2) To confirm that the FZD5-WNT7B circuit is not driven simply by expression and rule out the possibility of a disconnect between RNA and protein levels for the Wnt receptors in HPAF-II cells, a panel of recombinant Fabs were generated, alternatively referred to herein as ‘Frizzled profiler’, that can detect and discriminate all but one of the ten Frizzled receptors. […] To characterize the binding specificity of these Fabs on cells, a panel of 10 CHO cell lines was generated, each expressing the CRD domain of a different myc-tagged Frizzled family member anchored at the plasma membrane through a GPI anchor (CHO-myc-FZDGPI). Despite the high sequence identity between Frizzled family members (FIG. 7A, FIG. 7B), selective Fabs were identified for FZD4, FZD5, FZD6 and FZD10 as assessed by immunofluorescence and flow cytometry (FIG. 7D and FIG. 8). […] The FZD8 CRD is most homologous to that of FZD5 (FIG. 7B). These Fabs can be used to discriminate expression of FZD1, FZD2, FZD4, FZD5, FZD6, FZD7, FZD8, FZD9 and FZD10 (FIG. 7D and FIG. 8). The ‘Frizzled profiler’ therefore consists of 10 different Fabs that can be used to discriminate expression of 9 different Frizzled family members. The Frizzled profiler was then used to confirm that HPAF-II cells express FZD1, FZD5, FZD6 and possibly FZD8 (FIG. 7E).
(§3) The binding of anti-FZD5 Fabs to cell surface-expressed Frizzled protein was further determined for each member of the Frizzled family via flow cytometry and immunofluorescence analysis of a panel of 10 CHO cell lines, each ectopically over-expressing the extracellular cysteine-rich domain (CRD) of a different Frizzled protein family member.

FZD3 CRD = molecular target: T2, FZD3 CRD (Homo sapiens, UniProt Q9NPG1); experiment: as above; design: key: −: no binding; +: very weak binder; ++: weak binder; +++: good binder; ++++: very good binder
T2 construct: CRD of FZD1, FZD2, FZD3, FZD4, FZD5, FZD6, FZD7, FZD8, FZD9 or FZD10; GPI anchor signal (C); expressed in transfected cells; host or cells: CHO cells, lentiviral pLenti-puro
T2 sequence (Q9NPG1 23-136 limits assumed): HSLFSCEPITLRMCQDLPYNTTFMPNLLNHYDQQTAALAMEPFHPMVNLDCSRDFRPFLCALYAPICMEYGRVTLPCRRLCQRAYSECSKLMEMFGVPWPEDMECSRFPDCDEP
Protocol: as §1, §2, §3

FZD4 CRD = molecular target: T3, FZD4 CRD (Homo sapiens, UniProt Q9ULV1); experiment: as above; design: key: −: no binding; +: very weak binder; ++: weak binder; +++: good binder; ++++: very good binder
T3 construct: E42-V167; GPI anchor signal (C); expressed in transfected cells; host or cells: CHO cells, lentiviral pLenti-puro
T3 sequence (Q9ULV1 42-167): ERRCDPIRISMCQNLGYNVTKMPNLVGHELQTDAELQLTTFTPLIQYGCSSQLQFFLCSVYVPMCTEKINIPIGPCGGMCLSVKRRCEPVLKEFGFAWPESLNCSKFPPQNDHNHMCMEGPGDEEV
Protocol: as §1, §2, §3

FZD5 CRD = molecular target: T4, FZD5 CRD (Homo sapiens, UniProt Q13467); experiment: as above; design: key: −: no binding; +: very weak binder; ++: weak binder; +++: good binder; ++++: very good binder
T4 construct: K29-T156; GPI anchor signal (C); expressed in transfected cells; host or cells: CHO cells, lentiviral pLenti-puro
T4 sequence (Q13467 29-156): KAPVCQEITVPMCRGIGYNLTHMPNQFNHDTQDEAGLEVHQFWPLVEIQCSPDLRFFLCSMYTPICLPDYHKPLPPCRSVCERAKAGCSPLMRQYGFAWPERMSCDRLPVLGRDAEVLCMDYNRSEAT
Protocol: as §1, §2, §3

FZD6 CRD = molecular target: T5, FZD6 CRD (Homo sapiens, UniProt O60353); experiment: as above; design: key: −: no binding; +: very weak binder; ++: weak binder; +++: good binder; ++++: very good binder
T5 construct: S20-P146; GPI anchor signal (C); expressed in transfected cells; host or cells: CHO cells, lentiviral pLenti-puro
T5 sequence (O60353 20-146): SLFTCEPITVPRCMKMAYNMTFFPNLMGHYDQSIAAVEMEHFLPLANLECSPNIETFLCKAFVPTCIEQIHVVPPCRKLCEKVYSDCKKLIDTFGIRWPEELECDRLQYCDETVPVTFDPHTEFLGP
Protocol: as §1, §2, §3

ASPC-1 cells [1] = experiment: Effect of anti-FZD5 Fabs on proliferation of pancreatic cancer cell lines (percent growth inhibition); assay type: cell-based, human; conditions: Fab 10 μg/ml
Protocol: (§4) The effect of presently disclosed anti-FZD5 Fabs on proliferation of RNF43 loss-of-function mutant pancreatic cancer cell lines HPAFII, PATU8988S and ASPC-1; and on pancreatic cancer cell line RWP1, was tested at […] and 10 μg/ml.

HPAFII cells = experiment: as above; assay type: cell-based, human; conditions: for percent growth inhibition, HPAFII 2 μg/ml: Fab 2 μg/ml; for percent growth inhibition, HPAFII 10 μg/ml: Fab 10 μg/ml
Protocol: as §4

PATU8988S cells = experiment: as above; assay type: cell-based, human; conditions: Fab 10 μg/ml
Protocol: as §4

RWP1 cells [2] = experiment: as above; assay type: cell-based, human; conditions: Fab 10 μg/ml
Protocol: as §4

ASPC-1 cells [3] = experiment: as above; assay type: cell-based, human; conditions: Fab 2 μg/ml
RWP1 cells [4] = experiment: as above; assay type: cell-based, human; conditions: Fab 2 μg/ml

| Molecule | Immunofluorescence binding, Frizzled CRD overexpressed on CHO cells: FZD1 (FZD1 CRD) | Immunofluorescence binding, Frizzled CRD overexpressed on CHO cells: FZD3 (FZD3 CRD) | Immunofluorescence binding, Frizzled CRD overexpressed on CHO cells: FZD4 (FZD4 CRD) | Immunofluorescence binding, Frizzled CRD overexpressed on CHO cells: FZD5 (FZD5 CRD) | Immunofluorescence binding, Frizzled CRD overexpressed on CHO cells: FZD6 (FZD6 CRD) | percent growth inhibition, ASPC-1 10 μg/ml (ASPC-1 cells [1]) [%] | percent growth inhibition, HPAFII 2 μg/ml (HPAFII cells) [%] | percent growth inhibition, HPAFII 10 μg/ml (HPAFII cells) [%] | percent growth inhibition, PATU8988s 10 μg/ml (PATU8988S cells) [%] | percent growth inhibition, RWP1 10 μg/ml (RWP1 cells [2]) [%] | percent growth inhibition, ASPC-1 2 μg/ml (ASPC-1 cells [3]) [%] | percent growth inhibition, RWP1 2 μg/ml (RWP1 cells [4]) [%] |
| --- | --- | --- | --- | --- | --- | --- | --- | --- | --- | --- | --- | --- |
| Fab-2900: anti-FZD5 Fab with antibody variable region Fv-2900; CDR SEQ ID NOs: 35, 36, 39, 78, 115, 153 (antibody, V domains shown) VH: EVQLVESGGGLVQPGGSLRLSCAASGFNLSSYYIHWVRQAPGKGLEWVASISSSSSSTSYADSVKGRFTISADTSKNTAYLQMNSLRAEDTAVYYCARGALDYWGQGTLVTVSS VL: DIQMTQSPSSLSASVGDRVTITCRASQSVSSAVAWYQQKPGKAPKLLIYSASSLYSGVPSRFSGSRSGTDFTLTISSLQPEDFATYYCQQWYSGSSLFTFGQGTKVEIK | − | − | − | ++++ | − | −1.26 | 3.34 | 3.46 | −51.41 | −29.81 | −13.30 | −28.30 |
| Fab-2902: anti-FZD5 Fab with antibody variable region Fv-2902; CDR SEQ ID NOs: 35, 36, 41, 80, 117, 153 (antibody, V domains shown) VH: EVQLVESGGGLVQPGGSLRLSCAASGFNISYYYIHWVRQAPGKGLEWVASISSSSSSTSYADSVKGRFTISADTSKNTAYLQMNSLRAEDTAVYYCARGALDYWGQGTLVTVSS VL: DIQMTQSPSSLSASVGDRVTITCRASQSVSSAVAWYQQKPGKAPKLLIYSASSLYSGVPSRFSGSRSGTDFTLTISSLQPEDFATYYCQQWYAFGALITFGQGTKVEIK | − | − | − | ++++ | − | 17.39 | 25.42 | 21.81 | −32.61 | 31.22 | 10.84 | 26.56 |
| Fab-2903: anti-FZD5 Fab with antibody variable region Fv-2903; CDR SEQ ID NOs: 35, 36, 42, 81, 118, 155 (antibody, V domains shown) VH: EVQLVESGGGLVQPGGSLRLSCAASGFNLSYYYIHWVRQAPGKGLEWVASIYPYSSYTSYADSVKGRFTISADTSKNTAYLQMNSLRAEDTAVYYCARGAIDYWGQGTLVTVSS VL: DIQMTQSPSSLSASVGDRVTITCRASQSVSSAVAWYQQKPGKAPKLLIYSASSLYSGVPSRFSGSRSGTDFTLTISSLQPEDFATYYCQQWGGGSSLFTFGQGTKVEIK | + | − | − | ++++ | − | 14.86 | −10.34 | −10.98 | −16.37 | 17.38 | 4.49 | 8.52 |
| Fab-2906: anti-FZD5 Fab with antibody variable region Fv-2906; CDR SEQ ID NOs: 35, 36, 45, 84, 121, 158 (antibody, V domains shown) VH: EVQLVESGGGLVQPGGSLRLSCAASGFNFSSSSIHWVRQAPGKGLEWVAYISSSYGYTYYADSVKGRFTISADTSKNTAYLQMNSLRAEDTAVYYCARTVRGSKKPYFSGWAMDYWGQGTLVTVSS VL: DIQMTQSPSSLSASVGDRVTITCRASQSVSSAVAWYQQKPGKAPKLLIYSASSLYSGVPSRFSGSRSGTDFTLTISSLQPEDFATYYCQQWSWGFLITFGQGTKVEIK | − | − | − | ++++ | − | 35.20 | 15.24 | 14.98 | −30.04 | 5.47 | 20.56 | 1.19 |

Source: US20210253718A1, “FRIZZLED5 PROTEIN-BINDING AGENTS” (Modmab Therapeutics Corporation, priority 2016, published 2021)
